These results are taken from the supplement of paper PMC9170038.

This data set deals with MS2 coat protein. The data set can be described thus: apparent KD of MS2 coat protein; designed switch direction (-1 OFF switch, 1 ON switch): -1; higher = weaker reporter binding. The method in brief:
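SNAP-549-labelled MS2 coat protein was titrated, doubling from 0.7 or 1.5 nM to 3 µM, over designed RNA switches transcribed on Illumina chips by stalled E. coli RNA polymerase. Runs were done without input, with 200 uM small-molecule ligand, or with an oligonucleotide input. Apparent KD is the per-design median over clusters of curve-fitted normalised fluorescence.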

[1] abbreviates: Eterna round: R95, input ligand: FMN 200 uM.
[2] abbreviates: Eterna round: R95, input ligand: microRNA oligo, concentration not stated.
The mark [3] stands for this setting: Eterna round: R95, input ligand: none.
The mark [4] stands for this setting: input ligand: microRNA oligo, concentration not stated.

As for “GGAUCGAAUGUGAGGAUAUACCUAUGGAUACAUAGGUAGAAGGCACAUGAGGAUCACCCAUGUCCUAACGGUCC [Eli bmx4 4.14] (Eterna round: R97, puzzle: Brourd's mod of Exclusion 4)”, the “apparent KD of MS2 coat protein” value (input ligand: FMN 200 uM) was 479 nM and the “apparent KD of MS2 coat protein” value (input ligand: none) was 347 nM.
On to “GGAUCGAGUGUGAGGAUAUACCUAUGGAUACAUAGGUAGAAGGCACAUGAGGAUCACCCAUGUCCUAACGGUCC [Eli bmx4 4.15] (Eterna round: R97, puzzle: Brourd's mod of Exclusion 4)”, for which the “apparent KD of MS2 coat protein” value (input ligand: FMN 200 uM) was 933 nM and the “apparent KD of MS2 coat protein” value (input ligand: none) turned out to be 308 nM.
In the same order, the values of “GGAUCUACUGAGGAUAUUACAUCACCCGACUGAUAAGAAGGCAGAACAUGAGGAUCACCCAUGUGGGUAGCCAA [Polaris4] (Eterna round: R97, puzzle: Exclusion 6)” are 25.7 nM and 21.3 nM.
In the case of “GGAUUACAUGAGGAUCACCCAUGUGAGGAUAUCCCGACAGGUUGCAGAGAACCUCGUAGGAGAAGGCACAGGCG [EX1 B.12] (Eterna round: R97, puzzle: Exclusion 1)”, the “apparent KD of MS2 coat protein” value was 234 nM (input ligand: FMN 200 uM) and 102 nM (input ligand: none).
Regarding “GGCAAAGUAGGAUAUACAUGAGGAUCACCCAUGUUUCCAGAUGGCGUAGGUCUUCUUUGUAGAAGGGCUAUGCC [Ananinge] (Eterna round: R97, puzzle: Exclusion 3)”, the “apparent KD of MS2 coat protein” value by setting is: (input ligand: FMN 200 uM) 20.1 nM; (input ligand: none) 15.2 nM.
Consider “GGCAAUAACGAGGAUAUCGUAUGGGAAACCAUACGAGAAGGUGUAACAUGAGGAUCACCCAUGUUCCUCAAGCC [Mat - Exclusion 6 - Eli Mod - D66] (puzzle: Exclusion 6)”, for which the “apparent KD of MS2 coat protein” value runs as follows: under setting [1], 35.3 nM; under setting [2], 34.6 nM; under setting [3], 40 nM.
Take “GGCACACAUGUAGGAUAUCUGCACGAUUAGUGCAGAGAAGGACAUGAGGAUCACCCAUGUAAUUAAGAUCAAUUAUUAAGUGCC [ENG1/3-A1] (Eterna round: R96, puzzle: Exclusion NG 1)”: the “apparent KD of MS2 coat protein” value runs as follows: (input ligand: FMN 200 uM) 468 nM; under setting [4], 50 nM; (input ligand: none) 54.6 nM.
For “GGCAUGCAAGGAUAUACUUGAAGUGAUGUUCGAUAAAGUCUACUUGAGGAUCACCCAAGUAGAAGGUGCAUGCC [Exclusion 2 (Mod5.1 JL EX2 4.74 Vienna UCT mod of Mamaed)] (Eterna round: R97, puzzle: Exclusion 2)”, the “apparent KD of MS2 coat protein” value is, setting by setting: (input ligand: FMN 200 uM) 108 nM; (input ligand: none) 198 nM.
In the same order, the values of “GGCAUGUAAGGAUAUGCCACUGAGUGCUUUGCGCUCAGAAAGCAGAAGGUACAUGAGGAUCACCCAUGUGAUAA [jl-ex4-4.53 ViennaUCT mod] (Eterna round: R97, puzzle: Exclusion 4)” are 945 nM and 650 nM.
Regarding “GGCCCUAAGGUCAGAUUCACAAGCUUUUUGCUCGUUUUAACAUGAGGAUCACCCAUGUCUAGUGGAUCUGAUCCUCU [Sensor v3, turn-off variant 2 (MOD of Indiso v.1)] (puzzle: Sensor v3, turn-off variant 2)”, the “apparent KD of MS2 coat protein” value was 27.5 nM under setting [1], 14.9 nM under setting [2] and 31.2 nM under setting [3].
Turning to “GGCCUUCCGCGAGCUUUUUACAUGAGGAUCACCCAUGUGGUUUUUAGUCUUAUGCCCGGGCCCGUGUGGGCCCGGGC [-33.7, -54.7, A 12%] (Eterna round: R97, puzzle: Sensor, turn-off variant 1)”, the “apparent KD of MS2 coat protein” value by setting is: (input ligand: FMN 200 uM) 27.6 nM; (input ligand: none) 29.2 nM.
Take “GGCGAGCAAGGAUAUGCAGGGUAUCCGACUCGCAGCGGGCGACAUGAGGAUCACCCAUGUAGAAGGUGCACGCG [EX2 A.6] (Eterna round: R97, puzzle: Exclusion 2)”: the “apparent KD of MS2 coat protein” value (input ligand: FMN 200 uM) was 23.9 nM and the “apparent KD of MS2 coat protein” value (input ligand: none) came to 31 nM.
As to “GGCUAGUCAGGAUAUACGAACAUGUCAAAAGACGUGAAGGGACAUGAGGAUCACCCAUGUAGAAGGGACUAGCG [salish99_ex2_r3_002] (puzzle: Exclusion 2)”, the “apparent KD of MS2 coat protein” value under setting [2] is 25 nM.
For “GGCUGCAAUGUAGGAUAUCUGCACGUGUAGUGCAGAGAAGGACAUGAGGAUCACCCAUGUAUAGUAGCUUCGGCUACAGCAGCC [ENG1-D3] (Eterna round: R96, puzzle: Exclusion NG 1)”, the “apparent KD of MS2 coat protein” value reads like this: (input ligand: FMN 200 uM) 24.6 nM; under setting [4], 12.7 nM; (input ligand: none) 18.2 nM.
On to “GGGAAAGAGGUAAGGAUAUCCUCCUCGAAAGAGGAGGAGAAGGUACAUGAGGAUCACCCAUGUAAGAAGAAGAG [AK-MS2ROC-r4-Bmoexclusion4-13] (Eterna round: R97, puzzle: Brourd's mod of Exclusion 4)”, for which the “apparent KD of MS2 coat protein” value is, setting by setting: (input ligand: FMN 200 uM) 25 nM; (input ligand: none) 18.6 nM.
“GGGAAGAACCAACAAGUAUACAUGAGGAUCACCCAUGUUCCUAGUGGGUAUGUAAAGAUUAAGAGAGCUCGUCUUAU [AK-miRNA-r3-10] (Eterna round: R97, puzzle: Sensor, turn-off variant 1)”: the “apparent KD of MS2 coat protein” value worked out at 66.9 nM (input ligand: FMN 200 uM) and 75.3 nM (input ligand: none).
For “GGGCCCGGAGGAUAUACAAUGGGCCCGGGAAACCGGGUUUUACAUGAGGAUCACCCAUGUAGAAGGCCGGGCCC [-42.8, -38.99 kcal A 24%, 5a,0] (Eterna round: R97, puzzle: Exclusion 2)”, the “apparent KD of MS2 coat protein” value is 15.6 nM (input ligand: FMN 200 uM) and 14.6 nM (input ligand: none).
The like results for “GGGCCCGGAGGAUAUACAUGAGGAUCACCCAUGUAUUUGGGCCCUAUUGGGCCCGGGUGUAGAAGGCCGGGCCC [-42.1, -39.5 kcal, A 19%, 5abis,0] (Eterna round: R97, puzzle: Exclusion 3)” were, in that order, 17.3 nM and 14.6 nM.
With “GGGCCGGCCGGAGGAUAUGCGGCUUGGUUGGUCGGUGGGCCGGCCGGGACAUGAGGAUCACCCAUGUAGAAGGCUGGUUGGUUC [less GC, MS2 in another position, A 14%] (Eterna round: R96, puzzle: Exclusion NG 2)”, the “apparent KD of MS2 coat protein” value by setting is: (input ligand: FMN 200 uM) 58.2 nM; under setting [4], 42.8 nM; (input ligand: none) 60.7 nM.
Consider “GGGCGGGCAGGAUAUACAUGAGGAUCACCCAUGUAUGUCCAAAGACAUACAUUCUUAUGUAGAAGGGCCCGCCC [Ex 4] (Eterna round: R97, puzzle: Exclusion 3)”, for which the “apparent KD of MS2 coat protein” value turned out to be 142 nM (input ligand: FMN 200 uM) and 26.6 nM (input ligand: none).
For the sequence “GGGCUGCGACGCAGCCCAACAAAACAUGAGGAUCACCCAUGUCAGGAUAUACCGAUGCAGCAUCUGUAGAAGGGACAGAUCCAA [Tiraonin] (Eterna round: R96, puzzle: Exclusion NG 3)”, the “apparent KD of MS2 coat protein” value under setting [4] stood at 61.9 nM.
For “GGGCUUCAAGUGAGGAUAUCUACGCAGUUGAAGCGAGAGAAGGCACAUGAGGAUCACCCAUGUAUAGAAGAAGA [Rausmausis] (puzzle: Brourd's mod of Exclusion 4)”, the “apparent KD of MS2 coat protein” value amounted to 116 nM under setting [1], 26.5 nM under setting [2] and 29.1 nM under setting [3].
Turning to “GGGUGUCCAGUGAGGAUAUCCAACGCUAAGGCGCAGGAGAAGGCACAUGAGGAUCACCCAUGUAGCUGAAGAAA [Onerbegeso] (puzzle: Brourd's mod of Exclusion 4)”, the “apparent KD of MS2 coat protein” value is, setting by setting: under setting [1], 49.9 nM; under setting [2], 14.1 nM; under setting [3], 20 nM.
Turning to “GGUACUAACACGAAAGUGUUAGUACAAUAAGCUAGUGGAACAUGAGGAUCACCCAUGUCCUCAUUAGCUCGUCUUAG [Mat - Sensor v3 - Turn-off var 2 - D37] (puzzle: Sensor v3, turn-off variant 2)”, the “apparent KD of MS2 coat protein” value was found to be 14.7 nM under setting [1], 37.6 nM under setting [2] and 12.7 nM under setting [3].
Regarding “GGUACUAACACGAAAGUGUUAGUACUAUAAGCUUGUGUUACAUGAGGAUCACCCAUGUCCUCAUAGGCUCGUCUUGU [JL-sv3-2.17 mat747 mod] (puzzle: Sensor v3, turn-off variant 2)”, the “apparent KD of MS2 coat protein” value under setting [1] came out at 105 nM, the “apparent KD of MS2 coat protein” value under setting [2] was 51 nM and the “apparent KD of MS2 coat protein” value under setting [3] amounted to 115 nM.
For “GGUACUAACACGAGAGUGUUAGUACUAUAAGCUUGUGUUACAUGAGGAUCACCCAUGUCCUCAUAGGCUCGUCUUAU [Mat - Sensor v3 - Turn-off var 2 - D80] (puzzle: Sensor v3, turn-off variant 2)”, the “apparent KD of MS2 coat protein” value worked out at 209 nM under setting [1], 25.8 nM under setting [2] and 231 nM under setting [3].
Consider “GGUACUAACACGAUAGUGUUAGUACAAUAAGCUUGUGUUACAUGAGGAUCACCCAUGUCCUCAUAAGCUCGUCUUAU [Mat - Sensor v3 - Turn-off var 2 - D56] (puzzle: Sensor v3, turn-off variant 2)”, for which the “apparent KD of MS2 coat protein” value is, setting by setting: under setting [1], 117 nM; under setting [2], 102 nM; under setting [3], 108 nM.
“GGUACUCAAAGAGUACCAAUACGAACAUGAGGAUCACCCAUGUAGGAUAUGCUACUCAAAGAGUAGCAGAAGGACGUGUACCUU [Far Half Aptamer v1] (Eterna round: R96, puzzle: Exclusion NG 3)”: under setting [4], the “apparent KD of MS2 coat protein” value is 18.5 nM.
On to “GGUAGAGUGGCAGGAUAUCCGUCUGUUUCAGUCGGAGAAGGGCCACAGUCACUGGGUCCAAAUAUGGGUGACCAUGUAUCUACC [pwkr exNG1 F6.4] (Eterna round: R96, puzzle: Exclusion NG 1)”, for which the “apparent KD of MS2 coat protein” value reads like this: (input ligand: FMN 200 uM) 22 nM; under setting [4], 28.4 nM; (input ligand: none) 34.8 nM.
